What all share (assay): SDS-PAGE without pre-heating, with zymogram; crude enzymes (high concentration of (NH4)2SO4) in loading buffer with 10% SDS, not pre-heated, 10% polyacrylamide gel; compared with samples heated at 100 °C for 5 min; dimer band active on xylan plate
Assay [1] addresses Xyn10A, GH10 family xylanase from Aspergillus fumigatus Z5 (Aspergillus fumigatus Z5).
Assay [2] deals with Xyn10AdC, CBM1 removed Xyn10A (Aspergillus fumigatus Z5).
The target in assay [3] is Xyn10AdLC, CBM1 and linker region removed Xyn10A (Aspergillus fumigatus Z5).

“Xyn10A, GH10 family xylanase from Aspergillus fumigatus Z5 (enzyme)” had a stoichiometry N in assay [1] of 2.

The substance “Xyn10AdC, CBM1 removed Xyn10A (domain or fragment)” displayed a stoichiometry N in assay [2] of 2.

As for “Xyn10AdLC, CBM1 and linker region removed Xyn10A (domain or fragment)”, the stoichiometry N in assay [3] was determined as 2.

The stoichiometry N is a count of units in the complex or per binding partner.

These data come from article PMC5862715.
